{
  "source": "paper PMC3678299",
  "about": "(FEBS Open Bio, 2013)",
  "proteins": {"B1": {"name": "tropomyosin-related kinase A (TrkA) (receptor)", "chain": "not shown"}},
  "biological_target": "the molecule itself",
  "assay": "cross-linking; chemical cross-linking in TrkA-transfected PC12 cells, with or without LPC; data not shown",
  "data": [
    {"protein": "B1", "values": [
      {"measurement": "stoichiometry N", "value": 2}
    ]}
  ]
}
